Data: patent publication US10772928B2, “Modulation and detection of a neuronal alternative splicing regulatory network for treatment and diagnosis of neurological disorders” (The Governing Council of the University of Toronto, priority 2014, dated 2020)
Entries after “also recorded” stand apart in the source; their conditions may differ. Peptide text beside a SMILES is read from it. * marks the point of attachment. Cbz = O=C(OCc1ccccc1)*

Tests used:
nSR100 [1] = target: T1, nSR100 (Mus musculus, UniProt Q8BKA3); assay: Regulation by nSR100: microexon inclusion level (PSI) by RNA-Seq in mouse N2A cells depleted of nSR100 (Table 2); type: cell-based
T1 construct: host or cells: mouse N2A cells
T1 sequence (Q8BKA3 1-608): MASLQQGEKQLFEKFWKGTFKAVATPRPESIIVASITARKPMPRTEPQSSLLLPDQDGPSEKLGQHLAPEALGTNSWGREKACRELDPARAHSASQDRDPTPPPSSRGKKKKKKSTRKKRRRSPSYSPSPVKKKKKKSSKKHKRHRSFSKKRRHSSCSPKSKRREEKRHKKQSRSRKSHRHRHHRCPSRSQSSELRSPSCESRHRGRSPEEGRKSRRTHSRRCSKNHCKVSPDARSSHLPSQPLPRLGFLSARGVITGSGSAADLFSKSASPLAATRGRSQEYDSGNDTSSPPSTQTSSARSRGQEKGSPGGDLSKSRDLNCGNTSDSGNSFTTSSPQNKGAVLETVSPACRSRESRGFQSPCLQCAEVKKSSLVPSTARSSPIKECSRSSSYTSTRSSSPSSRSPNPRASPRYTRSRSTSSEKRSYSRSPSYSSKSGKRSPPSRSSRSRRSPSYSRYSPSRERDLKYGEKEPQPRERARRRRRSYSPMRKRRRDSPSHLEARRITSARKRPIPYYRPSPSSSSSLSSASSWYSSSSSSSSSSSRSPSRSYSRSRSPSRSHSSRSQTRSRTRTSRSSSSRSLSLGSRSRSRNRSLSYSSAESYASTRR
Description: A-H) Percent of neural-regulated exons within each length class that is affected at 15<|ΔPSI|<25 and |ΔPSI|>25 by (A) RBFOX1 knockdown in human neural precursor cells; (B) MBNL1 and MBNL2 double knockdown in human HeLa cells; (C) ESRP1 knockdown in human PNT2 cells; (D) nSR100/Srrm4 knockdown in mouse N2A cells; (E) Ptbp1 knockdown in mouse N2A cells; (F) Ptbp2 knockout in mouse cortex (P1 stage); (G) Ptbp2 knockout in mouse embryonic brain (18.5 days post-conception); and (H) Rbfox1 knockout. p values correspond to two-sided proportion tests of regulated versus non-regulated events. I) Expression of nSR100 in different isolated brain cell types (Zhang et al., 2014). Error bars indicate SEM. […]
(§1) An RNA-Seq analysis pipeline was developed to detect and quantify all AS event classes involving all hypothetically possible splice junctions formed by the usage of annotated and unannotated splice sites, including those that demarcate microexons. […]
A multi-module analysis pipeline was developed that uses RNA-Seq, expressed sequence tag (EST) and cDNA data, as well as gene annotations and evolutionary conservation, to assemble libraries of exon-exon-junctions (EEJs) for subsequent read alignment to detect and quantify AS events in RNA-Seq data. […] Alt3 or Alt5 events were quantified based on the fraction of reads supporting the usage of each alternative splice site. […]

nSR100 [2] = assay: nSR100 protein levels by western blot in dox-inducible, nSR100-expressing 293T cells; type: cell-based, human; details: versus DMSO or control siRNAs
Description: Tubulin detection was used as loading control.
RT-PCR assays were used to confirm FBXW11 knockdown. nSR100 protein levels were monitored using a western blot. Tubulin and 1-actin detection was used to control for loading.
By applying affinity purification coupled to mass-spectrometry (AP-MS), several interaction nSR100 partner proteins were detected that provide insight into mechanisms of post-translational regulation of nSR100 levels. For example, AP-MS experiments identified the F-box protein FBXW11 (also known as 1TRCP2) as an nSR100 interaction partner. The Skp-Cullin-F-box (SCF) complex is a multi-protein complex that regulates cellular protein levels via ubiquitin-mediated proteolysis. FBXW11 is an E3 ubiquitin ligase that confers specificity to the SCF complex by recognizing a particular phosphodegron on targets. In addition, Skp1, which is required for recognizing and binding FBXW11, was also detected in nSR100 AP-MS experiments. Phosphorylation of consensus binding sites for F-box proteins, including FBXW11, is typically required for targeting of proteins for degradation by the proteosomal pathway. The set of nSR100 interaction partners identified by AP-MS included several kinases such as PLK1, GSK3B, CSNK2, CSNK1, CDK1 and SRPK1, as well as other kinases that may control nSR100 levels and or activity.

nSR100 [3] = assay: nSR100 protein (western blot) and mRNA (qRT-PCR) levels in KCl-depolarized DIV11 cortical neurons; type: cell-based, mouse
Description: A) Overlap between microexons that are skipped in humans with ASD (upper set), skipped upon neuronal depolarization (lower left set) and nSR100-regulated microexons (lower right set). B) Microexons were plotted based on their PSI difference between depolarized and resting wild-type neurons (X-axis), and between nSR100^Δ7-8/Δ7-8 and nSR100^+/+ mice (Y-axis). C) Cumulative distribution plots indicating the position of the first UGC motif within 200 nt upstream of neuronal activity-regulated microexons (dashed curve) or longer cassette exons (thick solid curve) vs. non-neural alternative cassette exons (light solid curve). The number of exons used to analyze each subgroup is shown in parentheses. D) Western blot on KCl-treated DIV11 cortical neurons (left panel) and quantification of nSR100 protein level (right panel). E) RT-PCR showing increased intron retention and microexon inclusion in nSR100 transcripts early after depolarization of DIV11 cortical neurons. […] G) Representative RT-PCRs on nuclear and cytosolic fractions (left panel) to assess localization of nSR100 transcripts in three replicates of cultured DIV4 cortical neurons with qRT-PCR quantification of the abundance of nSR100 isoforms harboring the retained intron, normalized to GAPDH levels in the correspondent cell fractions from six replicates (right panel). […]

[4] = test system: hippocampal mouse neurons; assay: RNA-Seq analysis of alternative splicing events after KCl depolarization of cultured hippocampal neurons (Table 3); type: cell-based; details: for number of alternative splicing events displaying changes: change of at least 15
Protocol: A) Number of alternative splicing events with PSI, percent intron retention (PIR) or percent splice site usage (PSU) changes of at least 15, 30 minutes and 3 hours after neuronal depolarization. B) Microexons and cassette exons are preferentially skipped following neuronal depolarization, whereas retained introns show no directionality. C) Gene ontology analysis of microexons and cassettes exons with ΔPSI≥15 during neuronal depolarization.
A systematic analysis of alternative splicing events modulated by neuronal activity, including microexons, longer cassette exons, retained introns and alternative 5′ and 3′ splice sites was first performed. Cultured wild-type hippocampal mouse neurons were depolarized using KCl treatment for thirty minutes or three hours and RNA-Seq analysis was performed on these samples. […] Among the additional alternative splicing events affected by neuronal depolarization were 887 (of 10830 detected alternative cassette exons>27 nt; 8.1%) alternative cassette exons and 672 retained introns. Longer alternative cassette exons were also primarily skipped in depolarized neurons (747/887; 84.2%) (FIG. 42B). Genes harboring depolarization-dependent alternative cassette exons have functions related to signal transduction and transcription regulation whereas those with microexons relate primarily to vesicle transport (FIG. 42C).

nSR100 [5] = target: T1, nSR100; assay: AP-MS nSR100 interaction partners from mouse N2A cells (Table 5); type: binding; details: for AvgP (average of the SAINT scores) / MaxP (maximal SAINT score): bait Srrm4; for FoldChange between the prey Avg spectra of the bait and control purifications: bait Srrm4, 0.1 added to prevent division by 0; for AvgSpec (average number of spectra per replicate): bait Srrm4, 2 replicates; for Spectra (number of spectra for the prey in the purification of the bait): AP-MS; for SpecSum: bait Srrm4, sum of spectra over 2 replicates
nSR100 [6] = target: T2, nSR100 (Homo sapiens, UniProt A7MD48); assay: Regulation by nSR100: microexon inclusion level (PSI) by RNA-Seq in human 293T cells overexpressing nSR100 (Table 1); type: cell-based; details: YES/NO
T2 construct: expressed in transfected cells; host or cells: 293T (human kidney cells), doxycycline-inducible nSR100 expression
T2 sequence (A7MD48 1-611): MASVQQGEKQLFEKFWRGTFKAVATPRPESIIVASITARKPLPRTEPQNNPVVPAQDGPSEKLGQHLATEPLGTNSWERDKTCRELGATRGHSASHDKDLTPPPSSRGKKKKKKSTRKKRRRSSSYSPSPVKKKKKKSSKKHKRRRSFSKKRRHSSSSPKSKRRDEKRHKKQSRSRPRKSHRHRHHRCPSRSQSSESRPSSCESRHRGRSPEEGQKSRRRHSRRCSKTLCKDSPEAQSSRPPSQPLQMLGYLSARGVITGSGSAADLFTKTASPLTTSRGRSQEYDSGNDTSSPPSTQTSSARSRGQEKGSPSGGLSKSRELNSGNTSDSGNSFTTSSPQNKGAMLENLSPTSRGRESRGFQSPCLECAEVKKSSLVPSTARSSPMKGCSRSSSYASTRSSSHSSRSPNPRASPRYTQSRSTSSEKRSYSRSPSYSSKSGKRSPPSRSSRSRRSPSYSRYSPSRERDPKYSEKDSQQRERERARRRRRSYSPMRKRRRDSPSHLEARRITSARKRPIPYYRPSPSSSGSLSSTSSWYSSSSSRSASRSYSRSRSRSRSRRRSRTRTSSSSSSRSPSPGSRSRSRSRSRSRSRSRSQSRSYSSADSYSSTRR
Description: A) Percent of neural-regulated exons within each length class that is affected by nSR100 expression in human 293T kidney cells (absolute ΔPSI>15, light grey or absolute ΔPSI>25, dark grey). p-values correspond to two-sided proportion tests of affected vs. non-affected events. B) Average normalized density of nSR100 cross-linked sites in 200 nt windows encompassing neural-regulated exons of different length classes. FPB, Fragments Per Billion. […]
as §1
A multi-module analysis pipeline was developed that uses RNA-Seq, expressed sequence tag (EST) and cDNA data, as well as gene annotations and evolutionary conservation, to assemble libraries of exon-exon-junctions (EEJs) for subsequent read alignment to detect and quantify AS events in RNA-Seq data. […] Alt3 or Alt5 events were quantified based on the fraction of reads supporting the usage of each alternative splice site. Intron retention was analyzed as recently described (Braunschweig et al., 2014). […]

[7] = bait Srrm4, biological replicate 1 (first number of the cell)
[8] = bait Srrm4, biological replicate 2 (second number of the cell)

Molecule: Dtnb
- Regulation by nSR100 (nSR100 [1]; threshold change of PSI≥10): YES

Molecule: Sbf1
- Regulation by nSR100 (nSR100 [1]; YES/NO): YES

Molecule: CC(C)C[C@@H](C=O)NC(=O)[C@H](CC(C)C)NC(=O)[C@H](CC(C)C)NC(=O)OCc1ccccc1 [MG132] (Cbz-Leu-Leu-Leu-aldehyde)
- nSR100 protein levels (nSR100 [2]): increased levels of SRRM4; also recorded: significant increases in levels of nSR100

Molecule: [Cl-].[K+] [KCl]
- decrease in nSR100 protein levels (nSR100 [3]; 30 minutes into KCl treatment, DIV11 cortical neurons): 2 fold
- nSR100 mRNA levels (nSR100 [3]; thirty minutes after depolarization, qRT-PCR): remain steady
- number of alternative splicing events displaying changes ([4]; 30 minutes after KCl treatment): 222
- microexons with increased skipping, share of all microexons ([4]; 3 hours of KCl treatment): 14.7%
- number of microexons with higher inclusion levels ([4]; 3 hours of KCl treatment): 7
- number of microexons with increased skipping (of 598 detected) ([4]; 3 hours of KCl treatment): 88
- number of alternative splicing events displaying changes ([4]; 3 hours of KCl treatment): 1,829

Molecule: Nudt21
- AvgP (average of the SAINT scores) (nSR100 [5]): 0.97
- MaxP (maximal SAINT score) (nSR100 [5]): 1
- FoldChange between the prey Avg spectra of the bait and control purifications (nSR100 [5]): 4
- AvgSpec (average number of spectra per replicate) (nSR100 [5]): 14
- Spectra (number of spectra for the prey in the purification of the bait) (nSR100 [5]; [7]): 16
- Spectra (number of spectra for the prey in the purification of the bait) (nSR100 [5]; [8]): 12
- SpecSum (nSR100 [5]): 28

Molecule: DTNB
- Regulation by nSR100 (nSR100 [6]): YES (minimum threshold (PSI≥10) requirement for annotation as “YES”)

Molecule: Ywhae
- AvgP (average of the SAINT scores) (nSR100 [5]): 1
- MaxP (maximal SAINT score) (nSR100 [5]): 1
- FoldChange between the prey Avg spectra of the bait and control purifications (nSR100 [5]): 3.57
- AvgSpec (average number of spectra per replicate) (nSR100 [5]): 25
- Spectra (number of spectra for the prey in the purification of the bait) (nSR100 [5]; [7]): 24
- Spectra (number of spectra for the prey in the purification of the bait) (nSR100 [5]; [8]): 26
- SpecSum (nSR100 [5]): 50
